Data as given in patent US20260077004A1 (UNIVERSITY OF MASSACHUSETTS, published 2026).

B1: truncated G628S KCNH2 (other)
chain: MPVRRGHVAPQNTFLDTIIRKFEGQSRKFIIANARVENCAVIYCNDGFCELCGYSRAEVMQRPCTCDFLHGPRTQRRAAAQIAQALLGAEERKVEIAFYRKDGSCFLCLVDVVPVKNEDGAVIMFILNFEVVMEKDMVGSPAHDTNHRGPPTSWLAPGRAKTFRLKLPALLALTARESSVRSGGAGGAGAPGAVVVDVDLTPAAPSSESLALDEVTAMDNHVAGLGPAEERRALVGPGSPPRSAPGQLPSPRAHSLNPDASGSSCSLARTRSRESCASVRRASSADDIEAMRAGVLPPPPRHASTGAMHPLRSGLLNSTSDSDLVRYRTISKIPQITLNFVDLKGDPFLASPTSDREIIAPKIKERTHNVTEKVTQVLSLGADVLPEYKLQAPRIHRWTILHYSPFKAVWDWLILLLVIYTAVFTPYSAAFLLKETEEGPPATECGYACQPLAVVDLIVDIMFIVDILINFRTTYVNANEEVVSHPGRIAVHYFKGWFLIDMVAAIPFDLLIFGSGSEELIGLLKTARLLRLVRVARKLDRYSEYGAAVLFLLMCTFALIAHWLACIWYAIGNMEQPHMDSRIGWLHNLGDQIGKPYNSSGLGGPSIKDKYVTALYFTFSSLTSVGFSNVSPNTNSEKIFSICVMLIGSLMYASIFGNVSAIIQRLYSGTARYHTQMLRVREFIRFHQIPNPLRQRLEEYFQHAWSYTNGIDMNAVLKGFPECLQADICLHLNRSLLQHCKPFRGATKGCLRALAMKFKTTHAPPGDTLVHAGDLLTALYFISRGSIEILRGDVVVAILGKNDIFGEPLNLYARPGKSNGDVRALTYCDLHKIHRDDLLEVLDMYPEFSDHFWSSLEITFNLRDTNMIPGSPGSTELEGGFSRQRKRKLSFRRRTDKDTEQPGEVSALGPGRAGAGPSSRG
B2: full-length G628S KCNH2 (other)
chain: MPVRRGHVAPQNTFLDTIIRKFEGQSRKFIIANARVENCAVIYCNDGFCELCGYSRAEVMQRPCTCDFLHGPRTQRRAAAQIAQALLGAEERKVEIAFYRKDGSCFLCLVDVVPVKNEDGAVIMFILNFEVVMEKDMVGSPAHDTNHRGPPTSWLAPGRAKTFRLKLPALLALTARESSVRSGGAGGAGAPGAVVVDVDLTPAAPSSESLALDEVTAMDNHVAGLGPAEERRALVGPGSPPRSAPGQLPSPRAHSLNPDASGSSCSLARTRSRESCASVRRASSADDIEAMRAGVLPPPPRHASTGAMHPLRSGLLNSTSDSDLVRYRTISKIPQITLNFVDLKGDPFLASPTSDREIIAPKIKERTHNVTEKVTQVLSLGADVLPEYKLQAPRIHRWTILHYSPFKAVWDWLILLLVIYTAVFTPYSAAFLLKETEEGPPATECGYACQPLAVVDLIVDIMFIVDILINFRTTYVNANEEVVSHPGRIAVHYFKGWFLIDMVAAIPFDLLIFGSGSEELIGLLKTARLLRLVRVARKLDRYSEYGAAVLFLLMCTFALIAHWLACIWYAIGNMEQPHMDSRIGWLHNLGDQIGKPYNSSGLGGPSIKDKYVTALYFTFSSLTSVGFSNVSPNTNSEKIFSICVMLIGSLMYASIFGNVSAIIQRLYSGTARYHTQMLRVREFIRFHQIPNPLRQRLEEYFQHAWSYTNGIDMNAVLKGFPECLQADICLHLNRSLLQHCKPFRGATKGCLRALAMKFKTTHAPPGDTLVHAGDLLTALYFISRGSIEILRGDVVVAILGKNDIFGEPLNLYARPGKSNGDVRALTYCDLHKIHRDDLLEVLDMYPEFSDHFWSSLEITFNLRDTNMIPGSPGSTELEGGFSRQRKRKLSFRRRTDKDTEQPGEVSALGPGRAGAGPSSRGRPGGPWGESPSSGPSSPESSEDEGPGRSSSPLRLVPFSSPRPPGEPPGGEPLMEDCEKSSDTCNPLSGAFSGVSNIFSFWGDSRGRQYQELPRCPAPTPSLLNIPLSSPGRRPRGDVESRLDALQRQLNRLETRLSADMATVLQLLQRQMTLVPPAYSAVTTPGPGPTSTSPLLPVSPLPTLTLDSLSQVSQFMACEELPPGAPELPQEGPTRRLSLPGQLGALTSQPLHRHGSDPGS

Molecular target: wild-type KCNH2 (human, UniProt Q12809 1-1159)
Assay: cell-based or functional assay

| Binder | reduction in sustained current (IKr) relative to GFP control cells, CHO cells [%] | reduction in tail current (IKr) relative to GFP control cells, CHO cells [%] |
| --- | --- | --- |
| B1 | 70 | 78 |
| B2 | 65 | 58 |
